Values of other authors as cited in article PMC9254699 (Biomaterials science, 2021).

Key:
TGF-β1 [1] = biological target: T1, TGF-β1 (Homo sapiens, UniProt P01137)
TGF-β1 [2] = biological target: T1, TGF-β1; remark: listed apart in the source

T1 sequence (P01137 279-390 limits assumed, species assumed): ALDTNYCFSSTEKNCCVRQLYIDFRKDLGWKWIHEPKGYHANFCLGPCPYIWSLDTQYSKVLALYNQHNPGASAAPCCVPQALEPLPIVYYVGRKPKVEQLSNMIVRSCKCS

| Molecule | direct binding to TGF-β1 or its receptors (TGF-β1 [1]) | activity against TGF-β1, preclinical anti-fibrotic (TGF-β1 [2]) |
| --- | --- | --- |
| decorin: molecule with activity against TGF-β1, explored preclinically as anti-fibrotic (protein, UniProt P07585 31-359, looked up) Decorin: DEASGIGPEVPDDRDFEPSLGPVCPFRCQCHLRVVQCSDLGLDKVPKDLPPDTTLLDLQNNKITEIKDGDFKNLKNLHALILVNNKISKVSPGAFTPLVKLERLYLSKNQLKELPEKMPKTLQELRAHENEITKVRKVTFNGLNQMIVIELGTNPLKSSGIENGAFQGMKKLSYIRIADTNITSIPQGLPPSLTELHLDGNKISRVDAASLKGLNNLAKLGLSFNSISAVDNGSLANTPHLRELHLDNNKLTRVPGGLAEHKYIQVVYLHNNNISVVGSSDFCPPGHNTKKASYSGVSLFSNPVQYWEIQPSTFRCVYVRSAIQLGNYK | do not directly bind TGF-β1 or its receptors | activity against TGF-β1 |
| γ-interferon: molecule with activity against TGF-β1, explored preclinically as anti-fibrotic (protein, UniProt P01579 24-161, looked up) Interferon gamma: QDPYVKEAENLKKYFNAGHSDVADNGTLFLGILKNWKEESDRKIMQSQIVSFYFKLFKNFKDDQSIQKSVETIKEDMNVKFFNSNKKKRDDFEKLTNYSVTDLNVQRKAIHELIQVMAELSPAAKTGKRKRSQMLFRG | do not directly bind TGF-β1 or its receptors | activity against TGF-β1 |
